{"source": "patent US20210292393A1", "about": "(published 2021)", "binders": {"B1": {"name": "antibody 310 (antibody, V domains shown)", "VH": "EVQLVESGGGLVQPGGSLRLSCAASGFTFSSYWMSWVRQAPGKGLEWVANIKQDGSEKYYVDSVKGRFTISRDNAKNSLYLQMNSLRAEDTAVYYCARVGSSSWYFDYWGQGTLVTVSS", "VL": "not shown"}, "B2": {"name": "antibody 308 (antibody, V domains shown)", "VH": "QLQLQESGPGLVKPSETLSLTCSVSGGSISSSSYHWGWIRQPPGKGLEWIGSIYYSGSTYYNPSLKSRVTISVDTSKNQFSLKLRSVTAADTAVYYCAGLRVVITFGGVIPKGGAFDIWGQGTMVTVSS", "VL": "QSALTQPASVSGSPGQSITISCTGTSSDVGGYNYVSWYQQHPGKAPKLMIYDVSNRPSGVSNRFSGSKSGNTASLTISGLQAEDEADYYCSSYTSSSTVVFGGGTKLTVL"}, "B3": {"name": "antibody 423 (antibody, V domains shown)", "VH": "EVQLVESGGGLIQPGGSLRISCAASGFTVRNNHMSWVRQAPGKGLEWVSVFYRGGTTYYADSVKGRFTISRDDSKNTVDLQMNSLRGEDTAVYYCARGLSVAASGYFDCWGQGTLVTVSS", "VL": "DIQMTQSPSSVSASVGDTVTITCRANQGISSWLAWYQQVPGKAPELLIYATSTLQSGVPSRFSGSGSGTDFTLTISSLQPEDFATYYCQQANSFPFTFGPGTKVDIK"}, "B4": {"name": "antibody 456 (antibody, V domains shown)", "VH": "QVQLQQWGAGLLKPSETLSLTCAVYGGSFSGYYWSWIRQPPGKGLEWIGEINHSGSTNYNPSLKSRVTISVDTSKNQFSLKLSSVTAADTAVYYCARDGSGSYYLSYYFDYWGQGTLVTVSS", "VL": "not shown"}, "B5": {"name": "antibody 454 (antibody, V domains shown)", "VH": "QVQLVQSGAEVKKPGASLKVSCKASGYIFTGYYMHWVRQAPGQGLEWMGWISPNSGGTKYAQKFQGRVTMTRDTSISTAYMELSRLRSDDSAVYYCAREPYYDILTGYYTPRRYLDYWGQGTLVTVSS", "VL": "B2 VL with G31D, A45V, N55H, S61T, Q81R, V99Y, G103T, L107V"}, "B6": {"name": "antibody 421 (antibody, V domains shown)", "VH": "QVQLVESGGGVVQPGRSLRLSCAASGFTFSTYAMHWVRQAPGKGLEWVAVISYDGSNKYYADSVKGRFTISRDNSKNTLYLQMNSLRAEDTAVYYCARGYGSGSYYPLYLYWGQGTLVTVSS", "VL": "not shown"}, "B7": {"name": "antibody 431 (antibody, V domains shown)", "VH": "QVQLVESGGGVVQPGRSLRLSCAASGFTFSSYAMHWVRQAPGKGLEWLAVISYDGSNKYYADSVKGRFTISRDNSKNTLYLQMNSLRAEDTAVYYCARSFRGGYYYGMDVWGQGTTVTVSS", "VL": "DIQLTQSPSFLSASVGDRVTITCRASQGISSYLAWYQQKPGKAPKLLIYAASTLQSGVPSRFSGSGSGTEFTLTISSLQPEDFATYYCQQLNSYPLFTFGPGTKVDIK"}, "B8": {"name": "antibody 439 (antibody, V domains shown)", "VH": "B7 VH with L48V, S99P, F100P, Y104S, G107P, M108F, V110P, T116L", "VL": "not shown"}, "B9": {"name": "antibody 446 (antibody, V domains shown)", "VH": "QVQLVESGGGVVQPGRSLRLSCAASGFTFSSYAMHWVRQAPGKGLEWVAVISYDGSNKYYADSVKGRFTISRDNSKNTLYLQMNSLRAEDTAVYYCARPNSGSYFGYFQHWGQGTLVTVSS", "VL": "QSVLTQPPSVSGAPGQRVTISCTGSSSNIGAGYDVHWYQQLPGTAPKLLIYGNSNRPSGVPDRFSGSKSGTSASLAITGLQAEDEADYYCQSYDSSLSGFYVFGTGTKVTVL"}, "B10": {"name": "antibody 422 (antibody, V domains shown)", "VH": "QVQLVQSGSELKKPGASVKVSCKASGYTFTSYAMNWVRQAPGQGLEWMGWINTNTGNPTYAQGFTGRFVFSLDTSVSTTYLQISSLKAEDTAVYYCARVIGVVTYYYYGMDVWGQGTTVTVSS", "VL": "not shown"}, "B11": {"name": "antibody 532 (antibody, V domains shown)", "VH": "EVQLVESGGGLVQPGGSLRLSCAASGIIVSSNYMSWVRQAPGKGLEWVSVIYSGGSTYYADSVKGRFTISRDNSKNTLYLQMNSLRAEDTAVYYCAREGLVGATLAFDYWGQGTLVTVSS", "VL": "not shown"}, "B12": {"name": "antibody 529 (antibody, V domains shown)", "VH": "QVQLVQSGAEVKKPGASVKVSCKASGYTFTSYGISWVRQAPGQGLEWMGWISAYNGNTNYAQKLQGRVTMTTDTSTSTAYMELRSLRSDDTAVYYCARMLIAAAGTSRDYYGMDVWGQGTTVTVSS", "VL": "EIVLTQSPDFQSVTPKEKVTITCRASQSIGSSLHWYQQKPDQSPKLLIKYASQSFSGVPSRFSGSGSGTDFTLTINSLEAEDAATYYCHQSSSLPHTFGGGTKVEIK"}, "B13": {"name": "antibody 552 (antibody, V domains shown)", "VH": "QVQLVQSGAEVKKPGSSVKVSCKASGGTFSSYGISWVRQAPGQGLEWMGRIIPILGIANYAQKFQGRVTITADKSTSTAYMELSSLRSEDTAVYYCARAVYAAGDDDYYYYYGMDVWGQGTTVTVSS", "VL": "SYELTQPPSVSVSPGQTARITCSGDALPKQYAYWYQQKPGQAPVVVIYKDSDRPSGIPERFSGSSSGTTVTLTISGVQAEDEADYYCQSADSSGTYQVFGTGTKVSVL"}, "B14": {"name": "antibody 535 (antibody, V domains shown)", "VH": "EVQLVESGGGLIQPGGSLRLSCAASGFTVSSNYMSWVRQAPGKGLEWVSVIYSGGSTYYADSVKGRFTISRDNSKNTLYLQMNSLRAEDTAVYYCARDLTEEGDFWSASSYRRYYYYGMDVWGQGTTVTVSS", "VL": "not shown"}, "B15": {"name": "antibody 520 (antibody, V domains shown)", "VH": "QVQLVESGGGVVQPGRSLRLSCAASGFTFSSYAMHWGRQAPGKGLEWVAVISYDGSNKYYADSVKGRFTISRDNSKNTLYLQMNSLRAEDTAVYYCARDGGSGWLLVGNWFDPWGQGTLVTVSS", "VL": "QSALTQPASVSGSPGQSITISCTGTSSDVGGYNYVSWYQQHPGKAPKLMIYDVSNRPSGVSNRFSGSKSGNTASLTISGLQAEDEADYYCSSYTSSITLYVFGTGTKVTVL"}, "B16": {"name": "antibody 525 (antibody, V domains shown)", "VH": "QVQLVESGGGVVQPGRSLRLSCAASGFTFSSYAMHWVRQAPGKGLEWVTVISYNGRNKYYADSVKGRFTISRDNSKNTLYLQMNSLRAEDTAVYWCAREGLGAIVVGLDYWGQGTLVIVSS", "VL": "not shown"}, "B17": {"name": "antibody 559 (antibody, V domains shown)", "VH": "QVQLQESGPGLVKLSETLSLTCTVSGYSISSGYYWGWIRQPPGKGLEWIGSIYHSGSTYYNPSLKSRVTISVDTSKNQFSLKLSSVTAADTAVYYCAREETLGSSWYESYIDYWGQGTLVTVSS", "VL": "SYVLTQPPSVSVAPGKTARITCGGNNIGSKSVHWYQQKPGQAPVLVIYYDSDRPSGIPERFSGSNSGNTATLTISRVEAGDEADYYCQVWDSSSDHPRVFGGGTKLTVL"}, "B18": {"name": "antibody 530 (antibody, V domains shown)", "VH": "EVQLVESGGGLVQPGGSLRLSCAASGFTFSSYWMSWVRQAPGKGLEWVANIKQDGSEKYYVDSVKGRFTISRDNAKNSLYLQMNSLRAEDTAVYYCAREPQLWSEYYFDYWGQGTLVTVSS", "VL": "DIQMTQSPSSLSASVGDRVTITCRASQGISSWLAWYQQKPEKAPKSLIYAASSLQSGVPSRFSGSGSGTDFTLTISSLQPEDFATYYCQQYNSYPPTFGQGTRLEIK"}, "B19": {"name": "antibody 515 (antibody, V domains shown)", "VH": "EVQLVESGGGLVKPGGSLRLSCAASGFTFSSYSMNWVRQAPGKGLEWVSSISSSSSYIYYADSVKGRFTISRDNAKNSLYLQMNSLRAEDTAVYYCASIAAAGTLYYYYGMDVWGQGTTVTVSS", "VL": "not shown"}, "B20": {"name": "antibody 528 (antibody, V domains shown)", "VH": "QVQLVQSGAEVKKPGSSVKVSCKASGGTFNSNSISWVRQAPGQGLEWMGRIIPILDITMYARKFQGRVTISADKSTGTAYMDLSSLRSEDTAVYYCATDRDDSSGDYYYGMDVWGQGTTVTVSS", "VL": "DIQMTQSPSSLSASVGDRVTITCRASLSISNYLNWYQQKPGKAPNLLIYAASTLQSGVPSRFSGSGSGTDFTLTISSLQPEDFATYYCQQTYITRWTFGQGTKVEIK"}, "B21": {"name": "antibody 372 (antibody, V domains shown)", "VH": "QVQLVESGGGVVQPGRSLRLSCAASGFTFSSYAMHWVRQAPGKGLEWVAVISYDGSNKYYADSVKGRFTISRDNSKNTLYLQMNSLRAEDTAVYYCARDLGTSALLWFGELFLNYGMDVWGQGTTVTVSS", "VL": "QSALTQPRSVSGSPGQSVTISCTGTSSDVGGYNYVSWYQQHPGKAPKLMIYDVSKRPSGVPDRFSGSKSGNTASLTISGLQAEDEADYYCCSYAGSPILVFGGGTKLTVL"}, "B22": {"name": "antibody 367 (antibody, V domains shown)", "VH": "B5 VH with L18V, I28T, M34I, S52N, K59I, R87T, S91T, Y95S, T110A, L115F", "VL": "B2 VL with G31S, Q39L, Y88F, S96R, V99Y, G103T, L107V"}}, "note": "Residue numbers refer to the chain shown, from its start."}
{"molecular_target": "SARS-CoV-2 full length spike protein, D614G mutant (SARS-CoV-2, UniProt P0DTC2 14-1273)", "units": {"median fluorescence intensity, fold over isotype control": "fold over isotype"}}
{"binder": "B1", "median fluorescence intensity, fold over isotype control": 5.35}
{"binder": "B2", "median fluorescence intensity, fold over isotype control": 7.93}
{"molecular_target": "SARS-CoV-2 full length spike protein, V483A mutant (SARS-CoV-2, UniProt P0DTC2 14-1273)", "units": {"median fluorescence fold over isotype control": "fold over isotype"}}
{"binder": "B3", "median fluorescence fold over isotype control": 15.3}
{"binder": "B4", "median fluorescence fold over isotype control": 8.16}
{"binder": "B5", "median fluorescence fold over isotype control": 19.7}
{"binder": "B6", "median fluorescence fold over isotype control": 9.33}
{"binder": "B7", "median fluorescence fold over isotype control": 11.7}
{"binder": "B8", "median fluorescence fold over isotype control": 9.01}
{"binder": "B9", "median fluorescence fold over isotype control": 6.16}
{"binder": "B10", "median fluorescence fold over isotype control": 15.2}
{"molecular_target": "SARS-CoV-2 full length spike protein, D614G mutant (SARS-CoV-2, UniProt P0DTC2 14-1273)", "remark": "another data set of the same source", "units": {"median fold over isotype": "fold over isotype"}}
{"binder": "B11", "median fold over isotype": 74.9}
{"binder": "B12", "median fold over isotype": 0.77}
{"binder": "B13", "median fold over isotype": 23.5}
{"binder": "B14", "median fold over isotype": 93.2}
{"binder": "B15", "median fold over isotype": 7.6}
{"binder": "B16", "median fold over isotype": 7.12}
{"binder": "B17", "median fold over isotype": 49.5}
{"binder": "B18", "median fold over isotype": 8.68}
{"binder": "B19", "median fold over isotype": 21.6}
{"binder": "B20", "median fold over isotype": 3.71}
{"molecular_target": "SARS-CoV-2 full length spike protein, V367F mutant (SARS-CoV-2, UniProt P0DTC2 14-1273)", "units": {"median fold over isotype": "fold over isotype"}}
{"binder": "B11", "median fold over isotype": 45.1}
{"binder": "B12", "median fold over isotype": 0.98}
{"binder": "B13", "median fold over isotype": 13.2}
{"binder": "B14", "median fold over isotype": 64.5}
{"binder": "B15", "median fold over isotype": 31.2}
{"binder": "B16", "median fold over isotype": 32.4}
{"binder": "B17", "median fold over isotype": 25.4}
{"binder": "B18", "median fold over isotype": 8.39}
{"binder": "B19", "median fold over isotype": 9.43}
{"binder": "B20", "median fold over isotype": 31.2}
{"molecular_target": "SARS-CoV-2 full length spike protein, V367F mutant (SARS-CoV-2, UniProt P0DTC2 14-1273)", "remark": "another data set of the same source", "units": {"median fluorescence intensity, fold over isotype control": "fold over isotype"}}
{"binder": "B1", "median fluorescence intensity, fold over isotype control": 28.1}
{"binder": "B2", "median fluorescence intensity, fold over isotype control": 33.4}
{"molecular_target": "SARS-CoV-2 full length spike protein, V483A mutant, expressed on CHO cells (SARS-CoV-2, UniProt P0DTC2 14-1273)", "units": {"median fluorescence fold over isotype control": "fold over isotype"}}
{"binder": "B21", "median fluorescence fold over isotype control": 18.1}
{"binder": "B22", "median fluorescence fold over isotype control": 16.3}
